According to paper PMC4791140 (Molecular Biology of the Cell, 2016):

Target: T1, MBP-tagged WHAMM membrane-interaction domain (WMD) (human, UniProt Q8TF30 1-260)
T1 sequence (looked up): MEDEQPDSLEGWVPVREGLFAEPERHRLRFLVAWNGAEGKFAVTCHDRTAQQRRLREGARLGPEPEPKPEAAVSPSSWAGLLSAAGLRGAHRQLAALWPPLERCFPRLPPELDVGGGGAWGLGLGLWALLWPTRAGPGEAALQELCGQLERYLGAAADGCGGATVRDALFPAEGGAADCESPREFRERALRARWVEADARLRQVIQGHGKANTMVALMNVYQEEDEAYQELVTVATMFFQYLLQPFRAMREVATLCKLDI
Assay: pull-down

- binding result: binds
B1: GST-Rab1a, membrane-extracted prenylated form (Rab1(M)) (natural protein)
chain: not shown
modifications: prenylated (residues not stated)
